How the values were obtained:
TNFRSF25-Fc protein = target: T1, TNFRSF25-Fc protein (UniProt Q93038 25-199, biotinylated in the capture ELISA); assay: capture ELISA: scFv captured on anti-c-myc antibody, biotinylated TNFRSF25-Fc, streptavidin-HRP, OD450
T1 construct: also called TNFRSF25-Fc fusion protein; biotinylated antigen protein
T1 sequence (looked up): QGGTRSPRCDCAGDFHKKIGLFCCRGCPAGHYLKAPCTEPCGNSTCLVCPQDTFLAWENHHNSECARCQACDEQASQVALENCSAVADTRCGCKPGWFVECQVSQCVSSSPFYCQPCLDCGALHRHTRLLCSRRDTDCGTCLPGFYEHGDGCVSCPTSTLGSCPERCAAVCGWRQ

W330-cAb1.hIgG1(35783) = target: T2, W330-cAb1.hIgG1(35783); assay: ELISA: coated antibody at 5 ug/ml, TNFRSF25 ECD.hFcHis titrated, detection with anti-his-HRP, absorbance at 450 nm; the concentration is that of the TNFRSF25 fusion
T2 construct: Parent hamster anti-TNFRSF25 antibody made chimeric with human IgFc (hIgG1); also called chimeric anti-TNFRSF25 antibody; chimeric parent antibody

B1: 9A5 (combinatorial scFv clone of W3072-z4C12) (scFv, V domains shown)
VH: EVQLVESGGGLSQPGNSLQLSCEASGFTFSNHDLNWVRQAPGKGLEWVAYISSASGLISYADAVRGRFTISRDNAKNSLFLQMNNLKSEDTAMYYCARDPAYTGLYALDFWGQGTQVTVSS
VL: QPVLTQSPSASASLSGSVKLTCTLSSELSGFTIVWYQQRPDKAPKYVMYLKSDGSHSKGDGIPDRFSGSSSGAHRYLSISNVQSEDDATYFCGAGYTLANQYGWVFGSGTKVTVL
EC50 (read off the curve) (TNFRSF25-Fc protein): ~0.08 µg/mL

B2: 4B6 (scFv, V domains shown)
VH: EVQLVESGGGLSQPGNSLQLSCEASGFTFSNHDLNWVRQAPGKGLEWVAYISSASGLISYADAVRGRFTISRDNAKNSLFLQMNNLKSEDTAMYYCARDPAYTGLYALDFWGQGTQVTVSS
VL: QPVLTQSPSASASLSGSVKLTCTLSSELSNYTIVWYQQRPDKAPKYVMYLKSDGSHSKGDGIPDRFSGSSSGAHRYLSISNVQSEDDATYFCGAGYTLANQYGWVFGSGTKVTVL
EC50 (read off the curve) (TNFRSF25-Fc protein): ~0.2 µg/mL

B3: WBP330-hPro1.ECD.hFcHis (non-mutated) (Fc fusion)
chain: QGGTRSPRCDCAGDFHKKIGLFCCRGCPAGHYLKAPCTEPCGNSTCLVCPQDTFLAWENHHNSECARCQACDEQASQVALENCSAVADTRCGCKPGWFVECQVSQCVSSSPFYCQPCLDCGALHRHTRLLCSRRDTDCGTCLPGFYEHGDGCVSCPTSTLGSCPERCAAVCGWRQMF
notes: also called recombinant TNFRSF25 polypeptide; non-mutated WBP330-hPro1.ECD.hFcHis; not shown: human Fc and 6His tag (hFc-6His)
EC50 (W330-cAb1.hIgG1(35783)): 4.76 µg/mL

From patent US20170355773A1 (PELICAN THERAPEUTICS, published 2017)
